Test results published in patent US20050182242A1, “Global analysis of protein activities using proteome chips” (priority 2001, published 2005).

System: PI(3,4,5)P3 liposomes
Experiment: Yeast proteome chip probed with PI(3,4,5)P3 liposomes
Conditions: liposome binding signal on yeast proteome chip, Cy3-streptavidin detection

Molecule | PI(3, 4, 5)P3
MY04: yeast class V myosin heavy chain, GST-HisX6 fusion (protein, UniProt P32492 1-1471, looked up, GST-HisX6 tag, yeast class V myosin heavy chain, GST-HisX6 fusion) Myosin-4: MSFEVGTKCWYPHKEQGWIGGEVTKNDFFEGTFHLELKLEDGETVSIETNSFENDDDHPTLPVLRNPPILESTDDLTTLSYLNEPAVLHAIKKRYMNGQIYTYSGIVLIAANPFDKVDHLYSREMIQNYSSKRKDELEPHLFAIAEEAYRFMVHEKANQTVVVSGESGAGKTVSAKYIMRYFASVQESNNREGEVEMSQIESQILATNPIMEAFGNAKTTRNDNSSRFGKYLQILFDENTTIRGSKIRTYLLEKSRLVYQPETERNYHIFYQILEGLPEPVKQELHLSSPKDYHYTNQGGQPNIAGIDEAREYKITTDALSLVGINHETQLGIFKILAGLLHIGNIEMKMTRNDASLSSEEQNLQIACELLGIDPFNFAKWIVKKQIVTRSEKIVTNLNYNQALIARDSVAKFIYSTLFDWLVDNINKTLYDPELDQQDHVFSFIGILDIYGFEHFEKNSFEQFCINYANEKLQQEFNQHVFKLEQEEYVKEEIEWSFIEFSDNQPCIDLIENKLGILSLLDEESRLPSGSDESWASKLYSAFNKPPSNEVFSKPRFGQTKFIVSHYAVDVEYEVEGFIEKNRDSVSLGHLDVFKATTNPIFKQILDNRELRSDDAPEEQNTEKKIMIPARLSQKKPTLGSMFKKSLGELMAIINSTNVHYIRCIKPNSEKKPWEFDNLMVLSQLRACGVLETIRISCAGFPSRWTFDEFVQRYFLLTDYSLWSGILYNPDLPKEAIVNFCQSILDATISDSAKYQIGNTKIFFKAGMLAFLEKLRTNKMNEICIIIQKKIRARYYRLQYLQTMESIKKCQSQIRSLLVRTRVDHELKTRAAILLQTNIRALWKREYYRAAIGQIIKLQCTCKRKLILDSVNRKFMLMAAVIIQSYIRSYGHKTDYRTLKRSSILVQSAMRMQLARRRYIVLQKEVEERNIRASYGIGLLEEAIEFKNSFILNLEMLNDSYTRLTQLLQGDLSNIPSKQRQEYETIVNGYNDKISKLKTLQVEIMNTLNKKNALKERKKKQSSLIQSHMQSLAAIKGNKPSRLSDEVKSMKQELAFIENVIAQDFTTTYSANKNDKVKGLGIAGQQVKPKLVNVIRRESGNPDLLELLMDLNCYTLEVTEGYLKKVNVTEVNGDNVLGPIHVITTVVSSLVRNGLLIQSSKFISKVLLTVESIVMSLPKDETMLGGIFWLSNLSRLPAFAANQKTLYEANGGDEKDKLTLIYLNDLENETLKVFDKIYSTWLVKFMKHASAHIEIFDMVLNEKLFKNSGDEKFAKLFTFLNEFDAVLCKFQVVDSMHTKIFNDTLKYLNVMLFNDLITKCPALNWKYGYEVDRNIERLVSWFEPRIEDVRPNLIQIIQAVKILQLKISNLNEFKLLFDFWYALNPAQIQAILLKYKPANKGEAGVPNEILNYLANVIKRENLSLPGKMEIMLSAQFDSAKNHLRYDTSAITQNSNTEGLATVSKIIKLDRK | 51.07
CMK1: yeast calcium/calmodulin-dependent serine/threonine protein kinase, GST-HisX6 fusion (protein, left off: a dimerising Fc or GST, yeast calcium/calmodulin-dependent serine/threonine protein kinase, GST-HisX6 fusion) MDDKVSEKESSPKQTEEDSEGKMAHVQPASYVNKKKYVFGKTLGAGTFGVVRQAKNTETGEDVAVKILIKKALKGNKVQLEALYDELDILQRLHHPNIVAFKDWFESKDKFYIITQLAKGGELFDRILKKGKFTEEDAVRILVEILSAVKYMHSQNIVHRDLKPENLLYIDKSDESPLVVADFGIAKRLKSDEELLYKPAGSLGYVAPEVLTQDGHGKPCDIWSIGVITYTLLCGYSAFRAERVQDFLDECTTGEYPVKFHRPYWDSVSNKAKQFILKALNLDPSKRPTAAELLEDPWIICTELKTHNLLPGLKEGLDARQKFRNSVERVRLNMKIQKLRDLYLEQTESDSDFDEGSQANGSVPPLKATDTSQLSKKLSEEEQSKLKSELTSKAFAQLVNTVLAEKEKFLNINRVCSSDSDLPGSDIKSLDEAKEKPEGKDTKTEE | 699.07
